{"source": "patent US9382304B2", "about": "“Engineered polypeptides having enhanced duration of action with reduced immunogenicity” (priority 2011, dated 2016)", "molecules": {"B1": {"name": "HGEGTFTSDLSKQLEEEAVRLFIEWLKNTGGGGSASGSLAEAKEAANAELDSYGVSDFYKRLIDKAKTVEGVEALKDAILAALP (protein)", "chain": "HGEGTFTSDLSKQLEEEAVRLFIEWLKNTGGGGSASGSLAEAKEAANAELDSYGVSDFYKRLIDKAKTVEGVEALKDAILAALP"}}, "key": {"[1]": {"system": "IgG molecules present in normal human sera", "test": "Serum response analysis by ELISA (IgG binding to albumin binding polypeptides)", "conditions": "126 sera positive for one or more albumin binding polypeptides; sera diluted 50 times", "method": "The percentage of human serum containing IgG, capable of binding to a set of albumin binding polypeptides as disclosed herein was analyzed by ELISA.\nThe plates were coated over night […] at 4° C. On the day of analysis, the plates were washed twice with tap water and blocked for 2 hours with 100 μl of phosphate buffered saline (PBS) containing 0.05% casein (PBSC). […] After incubation for two hours at room temperature (RT), the plates were washed in PBSC four times using an automated ELISA washer. […] 50 μl of the diluted sera was added per well according to the pre-made plate layout. Each serum sample was tested as a singlet. Positive and negative controls were included on each plate and for each albumin binding polypeptide. […] The plates were incubated for one hour at RT and subsequently washed four times in PBSC using an automated ELISA washer."}, "NIH/Swiss mice": {"system": "NIH/Swiss mice", "test": "OGTT DOA (oral glucose tolerance test duration of action)", "assay_type": "in vivo, mouse", "conditions": "dosed 24 hours before OGTT, even at higher doses", "source_text": "Water and a standard pelleted mouse chow diet were available ad libitum, except as noted. […] Significant treatment effects were identified by ANOVA (p<0.05)."}, "[2]": {"conditions": "human, in vivo; cited from earlier work"}, "[3]": {"conditions": "rabbit, in vivo; cited from earlier work"}, "[4]": {"conditions": "mouse, in vivo; cited from earlier work"}, "[5]": {"conditions": "rat, in vivo; cited from earlier work"}, "GLP-1 receptor": {"molecular_target": "T1, GLP-1 receptor (Rattus norvegicus, UniProt P32301)", "T1 construct": "functional activity was determined using cells that endogenously express GLP-1R; endogenous in cells; host or cells: rat thyroid carcinoma 6-23 (clone 6) cells (ATCC CRL-1607)", "T1 sequence (P32301 22-463)": "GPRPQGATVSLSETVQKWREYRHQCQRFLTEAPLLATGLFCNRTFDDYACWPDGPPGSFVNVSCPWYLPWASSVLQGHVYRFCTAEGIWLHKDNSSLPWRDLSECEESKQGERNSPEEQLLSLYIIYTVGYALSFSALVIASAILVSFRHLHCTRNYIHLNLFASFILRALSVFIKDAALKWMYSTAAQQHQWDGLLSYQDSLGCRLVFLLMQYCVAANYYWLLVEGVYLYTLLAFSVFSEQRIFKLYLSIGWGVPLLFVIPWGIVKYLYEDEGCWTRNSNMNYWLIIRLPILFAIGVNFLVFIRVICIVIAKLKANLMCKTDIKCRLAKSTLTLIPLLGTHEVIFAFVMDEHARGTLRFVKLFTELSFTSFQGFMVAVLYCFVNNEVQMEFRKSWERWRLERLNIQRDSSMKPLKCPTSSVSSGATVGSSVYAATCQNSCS", "test": "GLP-1 receptor functional assay (cAMP induction, HTRF) in rat thyroid carcinoma 6-23 (clone 6) cells", "assay_type": "cell-based", "method": "In another embodiment the cell-based assay is a homogeneous time-resolved fluorescence assay (HTRF®). HTRF® kits are commercially available from Cisbio International (Bedford, Mass.). […] See worldwideweb.htrf.com/products/gper/camp/, the disclosure of which is incorporated by reference herein. […] The HTRF® standards and calibrations are prepared following the instructions in the kit. Assays may be performed with or without the presence of albumin.\nSee for example United States Patent Application Publication US20110097751A1, incorporated by reference for the assay method. In this example, functional activity was determined using cells that endogenously express GLP-1R, and cAMP induction is detected as a measure of exendin activity.\nThe data above was determined in the presence of about 0.1% bovine serum albumin (BSA)."}}, "note": "Read-outs that look alike come from different tables or passages of the source."}
{"molecule": "CC[C@H](C)[C@H](NC(=O)[C@H](C)NC(=O)[C@H](CC(=O)O)NC(=O)[C@H](CCCCN)NC(=O)[C@H](CC(C)C)NC(=O)[C@H](C)NC(=O)[C@H](CCC(=O)O)NC(=O)[C@@H](NC(=O)CNC(=O)[C@H](CCC(=O)O)NC(=O)[C@@H](NC(=O)[C@@H](NC(=O)[C@H](CCCCN)NC(=O)[C@H](C)NC(=O)[C@H](CCCCN)NC(=O)[C@H](CC(=O)O)NC(=O)[C@@H](NC(=O)[C@H](CC(C)C)NC(=O)[C@H](CCCNC(=N)N)NC(=O)[C@H](CCCCN)NC(=O)[C@H](Cc1ccc(O)cc1)NC(=O)[C@H](Cc1ccccc1)NC(=O)[C@H](CC(=O)O)NC(=O)[C@H](CO)NC(=O)[C@@H](NC(=O)CNC(=O)[C@H](Cc1ccc(O)cc1)NC(=O)[C@H](CSC1CC(=O)N(CCNC(=O)CN2CCN(CC(=O)O)CCN(CC(=O)O)CCN(CC(=O)O)CC2)C1=O)NC(=O)[C@H](CC(=O)O)NC(=O)[C@H](CC(C)C)NC(=O)[C@H](CCC(=O)O)NC(=O)[C@H](C)NC(=O)[C@H](CC(N)=O)NC(=O)[C@H](C)NC(=O)[C@H](C)NC(=O)[C@H](CCC(=O)O)NC(=O)[C@H](CCCCN)NC(=O)[C@H](C)NC(=O)[C@H](CO)NC(=O)[C@H](C)NC(=O)[C@H](CC(C)C)NC(=O)CN)C(C)C)[C@@H](C)CC)[C@@H](C)O)C(C)C)C(C)C)C(=O)N[C@@H](CC(C)C)C(=O)N[C@@H](C)C(=O)N[C@@H](C)C(=O)N[C@@H](CC(C)C)C(=O)N1CCC[C@H]1C(=O)O", "note": "(some centres unmarked) [PEP07968]", "values": [{"measurement": "IgG binding reactivity (average OD-value, percentage of serum with IgG binding)", "setting": "[1]", "result": "least reactivity"}, {"measurement": "immunogenicity definition", "setting": "CD3+ CD4+ T cells", "result": "non-immunogenic"}, {"measurement": "number of donors in which CD3+ CD4+ T cells proliferation was induced, compared to the albumin control", "setting": "CD3+ CD4+ T cells", "result": 1, "unit": "donors"}]}
{"molecule": "GSLAEAKEAANAELDSYGVSDFYKRLIDKAKTVEGVEALKDAILAALP [PEP07986]", "values": [{"measurement": "activity in OGTT DOA when dosed at t-24 hours", "setting": "NIH/Swiss mice", "result": "inactive"}]}
{"molecule": "albumin", "values": [{"measurement": "half-life", "setting": "[2]", "result": 456, "unit": "h"}, {"measurement": "half-life", "setting": "[3]", "result": 134, "unit": "h"}, {"measurement": "half-life", "setting": "[4]", "result": 24, "unit": "h"}, {"measurement": "half-life", "setting": "[5]", "result": 45.6, "unit": "h"}]}
{"molecule": "rabbit serum albumin: rabbit serum albumin", "values": [{"measurement": "half-life", "setting": "[3]", "result": "about 5 days"}]}
{"molecule": "B1", "values": [{"measurement": "in vitro activity against the GLP-1 receptor", "setting": "GLP-1 receptor", "result": "active in vitro"}, {"measurement": "activity in OGTT DOA when dosed at t-24 hours", "setting": "NIH/Swiss mice", "result": "did not display 24 duration"}]}
